Among the data in paper PMC6786648 are stoichiometry N values, retold here.

In general, stoichiometry N refers to a count of units in the complex or per binding partner.

This assay addresses EXP1 with G to L point mutations of the first glycine residues of the two GXXG motifs of the TM domain, Ty-tagged (P. falciparum) (UniProt Q8IIF0). The assay is described as follows: cross-linking; in vivo: parasite cultures in PBS with 1% formaldehyde (PFA), 37°C, 30 minutes, quenched with 30 mM Tris-HCl pH 8.0; extracts of treated and untreated cells immunoblotted with α-Ty. For orientation: A western blot detects proteins with antibodies after separation by electrophoresis.

In the case of “EXP1 with G to L point mutations of the first glycine residues of the two GXXG motifs of the TM domain, Ty-tagged (from UniProt Q8IIF0 1-162) (natural protein)”, the stoichiometry N is 2.
